Source: the RNAGym collection of RNA variant scans (doi:10.7554/elife.90254)

B1: LINE1-full (parent)
chain: UACGUAGGUGGUUUUCCCCUGAUAGUGCUAAGGGGGCCUGGAAGUUUGGACUGGGCAGAGCUCAACACAGCGUGGCAAAGUGGCUGUGGCUAGACUGCCUCUCUGGAUUCCUCGUCACUCAGCAGGGCAUCUCUGAGAGAAAUGCC

Variants of: B1
Assay: self-cleavage, relative activity (ratio to wild type); higher = more cleavage; in vitro, sequencing; the parent is a self-cleaving ribozyme

Q: Which self-cleavage does the source give for U5C A129C here?
A: 1.69

Q: Which self-cleavage does the source give for U45C A94U here?
A: 0.33

Q: Which self-cleavage does the source give for C110A U119C here?
A: 1.51

Q: For A31U, which self-cleavage is on record?
A: 1.03

Q: For G60A U62A, which self-cleavage is on record?
A: 0.01

Q: Which self-cleavage does the source give for G7C U81A here?
A: 2.25

Q: With C19U A24U as the variant, how does the self-cleavage read?
A: 1

Q: With C61G A77U as the variant, how does the self-cleavage read?
A: 0.04

Q: With A78G U102A as the variant, how does the self-cleavage read?
A: 1.24

Q: With U87A C123U as the variant, how does the self-cleavage read?
A: 0.06

Q: Which self-cleavage does the source give for U73G A136G here?
A: 1.84

Q: For A64G U81A, which self-cleavage is on record?
A: 0.34

Q: For A65U U119A, which self-cleavage is on record?
A: 0.21

Q: With U20C U62A as the variant, how does the self-cleavage read?
A: 0.11

Q: With G93U U102A as the variant, how does the self-cleavage read?
A: 0.02

Q: Which self-cleavage does the source give for A57C A136G here?
A: 0.05

Q: For G126A U134C, which self-cleavage is on record?
A: 1.58

Q: With A107U U109C as the variant, how does the self-cleavage read?
A: 1.58

Q: For A43G A69C, which self-cleavage is on record?
A: 0.13

Q: Which self-cleavage does the source give for C19U U132C here?
A: 0

Q: With A50G U81A as the variant, how does the self-cleavage read?
A: 1.3

Q: For U26A U85A, which self-cleavage is on record?
A: 0.16

Q: Which self-cleavage does the source give for U39A C71U here?
A: 0.97

Q: For A6G A136G, which self-cleavage is on record?
A: 1.17

Q: With U73A U112A as the variant, how does the self-cleavage read?
A: 2.03

Q: With A141U U143C as the variant, how does the self-cleavage read?
A: 0.28

Q: With U26A G126C as the variant, how does the self-cleavage read?
A: 1.42

Q: Which self-cleavage does the source give for A69U U85A here?
A: 0.5

Q: Which self-cleavage does the source give for A121G G144A here?
A: 1.91

Q: With A92C A129G as the variant, how does the self-cleavage read?
A: 0

Q: Which self-cleavage does the source give for C110U A136C here?
A: 2.76

Q: Which self-cleavage does the source give for U1C C98U here?
A: 0.13

Q: Which self-cleavage does the source give for A67C C110A here?
A: 0.05

Q: Which self-cleavage does the source give for A42C A117G here?
A: 0.77

Q: For U9A U87G, which self-cleavage is on record?
A: 0.23

Q: Which self-cleavage does the source give for U13C C17U here?
A: 1.19

Q: Which self-cleavage does the source give for U13C A57U here?
A: 0.12

Q: For G10C U73C, which self-cleavage is on record?
A: 1.64

Q: For A43G U62C, which self-cleavage is on record?
A: 0.1

Q: For A57U A117U, which self-cleavage is on record?
A: 0.13

Q: Which self-cleavage does the source give for U23A U62C here?
A: 0

Q: For U14C U112C, which self-cleavage is on record?
A: 1.19

Q: For U52C C99A, which self-cleavage is on record?
A: 0.27

Q: With G32A A69G as the variant, how does the self-cleavage read?
A: 0.37

Q: With U39C A138G as the variant, how does the self-cleavage read?
A: 1.29

Q: Which self-cleavage does the source give for U29C U45C here?
A: 1.08

Q: With U85A U130C as the variant, how does the self-cleavage read?
A: 0.1

Q: With A77G A129U as the variant, how does the self-cleavage read?
A: 2

Q: Which self-cleavage does the source give for U9A U12G here?
A: 0.67

Q: With G21C U132C as the variant, how does the self-cleavage read?
A: 1.27

Q: For A42G C133A, which self-cleavage is on record?
A: 1.59

Q: For C131U A138U, which self-cleavage is on record?
A: 1.27

Q: Which self-cleavage does the source give for U52A U85C here?
A: 0.2

Q: For U15A A129G, which self-cleavage is on record?
A: 0.65

Q: With C68U U108A as the variant, how does the self-cleavage read?
A: 0.2

Q: For A50U A69C, which self-cleavage is on record?
A: 0.04

Q: For U73A A124G, which self-cleavage is on record?
A: 1.03

Q: For U52A U102C, which self-cleavage is on record?
A: 0.88

Q: Which self-cleavage does the source give for A79U U100G here?
A: 1.24

Q: With U102A U109A as the variant, how does the self-cleavage read?
A: 1.03

Q: For U23A G105U, which self-cleavage is on record?
A: 1.36

Q: Which self-cleavage does the source give for A24C A138G here?
A: 0.88

Q: With A50U A124G as the variant, how does the self-cleavage read?
A: 0.71

Q: With U62A A64G as the variant, how does the self-cleavage read?
A: 0.05

Q: Which self-cleavage does the source give for G137C A138G here?
A: 1.26

Q: Which self-cleavage does the source give for A31G U81C here?
A: 0.69

Q: With U15A C113U as the variant, how does the self-cleavage read?
A: 0.44

Q: Which self-cleavage does the source give for A65G G89C here?
A: 0.03

Q: Which self-cleavage does the source give for U45G C120U here?
A: 1.49

Q: For U45A A140G, which self-cleavage is on record?
A: 1.32

Q: Which self-cleavage does the source give for U5C G75A here?
A: 1.15

Q: Which self-cleavage does the source give for U26A U134C here?
A: 0.9

Q: Which self-cleavage does the source give for C17A A142C here?
A: 1.9

Q: Which self-cleavage does the source give for U81A C120A here?
A: 2.51

Q: With U39C A43G as the variant, how does the self-cleavage read?
A: 1.38

Q: For U14C C19U, which self-cleavage is on record?
A: 0.83

Q: For U81C A140G, which self-cleavage is on record?
A: 1.07

Q: With A22G A64U as the variant, how does the self-cleavage read?
A: 0.41

Q: With U46C A141G as the variant, how does the self-cleavage read?
A: 1.41

Q: With A67U G75A as the variant, how does the self-cleavage read?
A: 0.09

Q: With U39C A79C as the variant, how does the self-cleavage read?
A: 2.53

Q: With U20C A30G as the variant, how does the self-cleavage read?
A: 1.39

Q: Which self-cleavage does the source give for C16U A59U here?
A: 0.8

Q: With G54A U109A as the variant, how does the self-cleavage read?
A: 0.35

Q: With A30G U96A as the variant, how does the self-cleavage read?
A: 0.21

Q: With G54A A65U as the variant, how does the self-cleavage read?
A: 0.1

Q: With A121C A129U as the variant, how does the self-cleavage read?
A: 1.9

Q: Which self-cleavage does the source give for U29C G127A here?
A: 0.64

Q: Which self-cleavage does the source give for A78G A136U here?
A: 1.79

Q: With G55A U104C as the variant, how does the self-cleavage read?
A: 1.02

Q: For A79U U112A, which self-cleavage is on record?
A: 1.97

Q: With U23C A77U as the variant, how does the self-cleavage read?
A: 1.36

Q: For U115C A140U, which self-cleavage is on record?
A: 1.39

Q: Which self-cleavage does the source give for U39C U47C here?
A: 1.91

Q: With U29G A141U as the variant, how does the self-cleavage read?
A: 0.35

Q: For U52A A57U, which self-cleavage is on record?
A: 0.14

Q: For U15A A78G, which self-cleavage is on record?
A: 0.99

Q: Which self-cleavage does the source give for U102A A140G here?
A: 1.62

Q: For U52C C84G, which self-cleavage is on record?
A: 0

Q: For U15C G44A, which self-cleavage is on record?
A: 1.41

Q: Which self-cleavage does the source give for U12C C84U here?
A: 0.15

Q: For A6U G55U, which self-cleavage is on record?
A: 0.4

Q: With U81A G126U as the variant, how does the self-cleavage read?
A: 2.04

Q: Which self-cleavage does the source give for A22G U96C here?
A: 0.2

Q: For A42G G80A, which self-cleavage is on record?
A: 2.61

Q: Which self-cleavage does the source give for U5C U14C here?
A: 0.99

Q: Which self-cleavage does the source give for U102C A142C here?
A: 1.73

Q: Which self-cleavage does the source give for U13C C103A here?
A: 1

Q: Which self-cleavage does the source give for G33U U104C here?
A: 1.62

Q: Which self-cleavage does the source give for G7A U130C here?
A: 0.94

Q: With U46A A124G as the variant, how does the self-cleavage read?
A: 0.8

Q: For U39A U85G, which self-cleavage is on record?
A: 0.28

Q: Which self-cleavage does the source give for U46C U134A here?
A: 1.1

Q: For U104A C116U, which self-cleavage is on record?
A: 0.9

Q: Which self-cleavage does the source give for U9C A142C here?
A: 0.83

Q: With C37U G55A as the variant, how does the self-cleavage read?
A: 0.12

Q: Which self-cleavage does the source give for C68G A141G here?
A: 0.04

Q: With U26A U39C as the variant, how does the self-cleavage read?
A: 0.73

Q: Which self-cleavage does the source give for U13C C71U here?
A: 0.58

Q: For U45C G54A, which self-cleavage is on record?
A: 0.43

Q: Which self-cleavage does the source give for G53U U134A here?
A: 0.68

Q: For G25A U81C, which self-cleavage is on record?
A: 1.91

Q: With U26C A117U as the variant, how does the self-cleavage read?
A: 2.25

Q: With A94C A136G as the variant, how does the self-cleavage read?
A: 0.07

Q: For C113U U115A, which self-cleavage is on record?
A: 1.05

Q: With U62C A92U as the variant, how does the self-cleavage read?
A: 0.04

Q: For A42U A142G, which self-cleavage is on record?
A: 0.88

Q: Which self-cleavage does the source give for U45G G106C here?
A: 0.92

Q: For U45G G106U, which self-cleavage is on record?
A: 0.64

Q: With A65G C76U as the variant, how does the self-cleavage read?
A: 0.02

Q: With U13G A77U as the variant, how does the self-cleavage read?
A: 1.31

Q: For A129G U132C, which self-cleavage is on record?
A: 1.58

Q: Which self-cleavage does the source give for U9A U85C here?
A: 0.54

Q: Which self-cleavage does the source give for U12A U15C here?
A: 0.92

Q: Which self-cleavage does the source give for U26G A138G here?
A: 1.21

Q: For G75A U81C, which self-cleavage is on record?
A: 0.67

Q: For A30U A69U, which self-cleavage is on record?
A: 0.1

Q: With C19U U23C as the variant, how does the self-cleavage read?
A: 0.79

Q: Which self-cleavage does the source give for A24U A140G here?
A: 1.75

Q: Which self-cleavage does the source give for G89A U119C here?
A: 0.06

Q: Which self-cleavage does the source give for G10A U130G here?
A: 0.93

Q: Which self-cleavage does the source give for U20C G75A here?
A: 1.16

Q: Which self-cleavage does the source give for C3U U130C here?
A: 0.31

Q: Which self-cleavage does the source give for A24U A67U here?
A: 0.1

Q: With A79U A124U as the variant, how does the self-cleavage read?
A: 0.67

Q: With G58U A136G as the variant, how does the self-cleavage read?
A: 0.01

Q: With U15C U115G as the variant, how does the self-cleavage read?
A: 1.07

Q: With G4A G93A as the variant, how does the self-cleavage read?
A: 0.03

Q: With U91A A141G as the variant, how does the self-cleavage read?
A: 0.51

Q: With G32C A138G as the variant, how does the self-cleavage read?
A: 0.84

Q: For U12G A50U, which self-cleavage is on record?
A: 1.16

Q: Which self-cleavage does the source give for U20A A140U here?
A: 1.7

Q: With A30G G74A as the variant, how does the self-cleavage read?
A: 0.56

Q: With C18U U143C as the variant, how does the self-cleavage read?
A: 1.11

Q: Which self-cleavage does the source give for G8A G48A here?
A: 0.44

Q: For A69U U115A, which self-cleavage is on record?
A: 0.07

Q: Which self-cleavage does the source give for U5A G36C here?
A: 1.16

Q: With U1A U62G as the variant, how does the self-cleavage read?
A: 0.36

Q: With G7U U13C as the variant, how does the self-cleavage read?
A: 0.99

Q: For A42U A64G, which self-cleavage is on record?
A: 0.14

Q: With U12A U87C as the variant, how does the self-cleavage read?
A: 0.25

Q: Which self-cleavage does the source give for U29A G48A here?
A: 1.01

Q: Which self-cleavage does the source give for U52C U87C here?
A: 0.11

Q: Which self-cleavage does the source give for U15C C66U here?
A: 0.04

Q: Which self-cleavage does the source give for A24G A69U here?
A: 0.21

Q: With U14A A50G as the variant, how does the self-cleavage read?
A: 1.25

Q: With C110G A129G as the variant, how does the self-cleavage read?
A: 1.36
